Data: the supplement of paper PMC10567573

B1: NECAB1 (parent)
chain: NLDTEELCEYFSQHLGEYENVLAA

Variants of: B1
Assay: protein stability index of a GFP-peptide fusion (GPS, HEK-293T) (PSI 1-6); higher = more stable
Details: c terminus: a fixed tail appended
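Also: lentivirally expressed fusions sorted by FACS into six bins by GFP to DsRed ratio, PSI derived from sequencing read proportions per bin multiplied by bin number.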

Protein stability index: each site, then its substitutions
A23: P 3.65; M 2.18; G 2.93; R 2.51; V 2.21; L 1.75; Q 3.68; Y 2.2; T 3.06; K 2.17; D 4.52; W 1.91; S 2.23; I 2.02; E 4.5; H 2.83; F 2.28; C 2.46; N 3.98
L22: Q 4.36; A 4.35; W 2.55; P 4.25; T 4.36; K 4.61; I 2.53; D 4.98; V 3.26; R 4.39; C 4.64; S 4.64; E 4.42; Y 3.52; M 3.71; H 4.32; N 4.36; G 4.3; F 1.86
V21: P 4.46; W 1.68; Q 3.52; S 3.88; Y 1.98; I 1.83; N 4.05; H 3.14; L 2.76; M 1.88; R 2.97; E 4.2; T 3.43; F 2.08; K 2.07; G 4.32
A24: P 3.43; S 3.21; F 2.02; R 1.82; I 2.26; K 2.69; H 3.35; E 3.53; Y 2.59; W 2.27; C 2.25; M 1.92; Q 3.12; N 2.02; T 2.99; V 2.8; D 3.98; G 2.22; L 2.82
